Results published in IntAct's records for PubMed 21037004.

B1: Protein-export protein SecB (Escherichia coli (strain K12)), P0AG86 (parent)
chain: MSEQNNTEMTFQIQRIYTKDISFEAPNAPHVFQKDWQPEVKLDLDTASSQLADDVYEVVLRVTVTASLGEETAFLCEVQQGGIFSIAGIEGTQMAHCLGAYCPNILFPYARECITSMVSRGTFPQLNLAPVNFDALFMNYLQQQAGEGTEEHQDA

Variants of: B1
Details: with seca_ecoli secA

Effect of a mutation on the interaction, increasing interaction strength:
G146E
T65C
L141C
Q33C
D43C
S85C
Q14C
E147C
Q50C
D35C
E150C
Q143C
T149C
A87C
T46C
L136C
A155C
L126C
T92C
E24C
D45C
